Measured values reported in patent US7067474B1, “Agents for treating human illnesses based on β-catenin, and the production and use thereof” (Max-Delbruck-Centrum fur Molekulare Medizin, priority 1998, dated 2006).

What was measured:
Test in all cases: yeast 2-hybrid; - means 60-100% of the wild type interaction
[1] = biological target: T1, human β-catenin (Leu218-Leu781) mutant Arg 274 to alanine, Gal-4 activation domain fusion (human, UniProt P35222 218-781)
T1 sequence: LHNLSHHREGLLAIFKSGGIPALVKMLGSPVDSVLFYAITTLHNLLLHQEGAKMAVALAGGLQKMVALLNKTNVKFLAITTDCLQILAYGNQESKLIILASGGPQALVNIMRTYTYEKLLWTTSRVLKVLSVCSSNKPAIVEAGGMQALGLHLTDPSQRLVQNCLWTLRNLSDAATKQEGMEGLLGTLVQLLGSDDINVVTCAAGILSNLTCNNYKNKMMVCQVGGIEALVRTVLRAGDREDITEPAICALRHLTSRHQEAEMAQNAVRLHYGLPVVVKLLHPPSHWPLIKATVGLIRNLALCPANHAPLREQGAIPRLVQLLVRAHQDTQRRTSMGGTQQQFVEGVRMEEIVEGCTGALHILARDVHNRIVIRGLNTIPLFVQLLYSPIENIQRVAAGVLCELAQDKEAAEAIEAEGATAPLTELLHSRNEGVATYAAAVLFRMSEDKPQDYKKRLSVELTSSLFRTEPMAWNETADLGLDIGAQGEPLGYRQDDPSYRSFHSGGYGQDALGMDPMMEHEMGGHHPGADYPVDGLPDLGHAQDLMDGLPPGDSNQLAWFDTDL
Description: (§1) 4. Preparation and testing of mutants of β-catenin modulating the interaction with LEF-1, APC, conductin or E-cadherin The mutagenesis of β-catenin in the armadillo repeats 3–8 was carried out by means of the "mutagenesis kit" of the company Clontech according to the producer's record and the mutants were checked by sequencing (FIG. 5). In all mutants the original amino acid was substituted by alanine. For analyzing the interactions the cDNA of human β-catenin (armadillo repeat 3 up to the C-terminal end of the protein) coding for the amino acids Leu218–Leu7 µl or its mutants was cloned into the fusion vector for the activation domain of Gal-4 (pGAD424, Clontech). The cDNA for the binding domains of the interaction partners was cloned into the Lex-A fusion vector BTM 116. To this end, the cDNA of LEF-1 for the amino acids 1–99, conductin for the amino acids Ala342–ARG465; of human APC for the amino acids His1012–Glu1215 (APC 15 amino acid repeats) and for the amino acids Ser1259Asp 1400 (APC 20 amino acid repeats) and E-cadherin for the amino acids Gin773–Asp884 (cytoplasmatic domain) were amplified with the respective primers PCR. The interaction of the Lex-A hybrids with β-catenin and its mutants was quantified by means of the β-galactosidase reporter activity in the yeast 2-hybrid system (report: "Matchmaker". Clontech) (Tab. 2 and FIG. 6).

[2] = biological target: T2, human β-catenin (Leu218-Leu781) mutant Trp 338 to alanine, Gal-4 activation domain fusion (human, UniProt P35222 218-781)
T2 sequence: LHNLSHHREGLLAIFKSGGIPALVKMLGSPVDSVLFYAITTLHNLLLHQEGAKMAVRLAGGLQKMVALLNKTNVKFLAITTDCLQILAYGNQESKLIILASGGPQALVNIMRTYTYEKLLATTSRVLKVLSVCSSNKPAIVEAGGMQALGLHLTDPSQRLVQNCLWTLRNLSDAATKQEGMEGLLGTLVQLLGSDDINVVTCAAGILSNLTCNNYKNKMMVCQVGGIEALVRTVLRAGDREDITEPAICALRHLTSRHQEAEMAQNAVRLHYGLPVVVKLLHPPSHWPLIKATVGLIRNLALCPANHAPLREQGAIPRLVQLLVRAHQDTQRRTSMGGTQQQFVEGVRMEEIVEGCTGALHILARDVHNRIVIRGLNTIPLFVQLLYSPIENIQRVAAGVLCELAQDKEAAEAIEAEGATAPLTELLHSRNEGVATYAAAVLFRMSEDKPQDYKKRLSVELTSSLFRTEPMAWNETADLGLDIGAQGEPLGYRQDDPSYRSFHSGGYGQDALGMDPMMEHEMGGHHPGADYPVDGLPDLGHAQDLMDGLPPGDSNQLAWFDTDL
Description: as §1

[3] = biological target: T3, human β-catenin (Leu218-Leu781) mutant Arg 342 to alanine, Gal-4 activation domain fusion (human, UniProt P35222 218-781)
T3 sequence: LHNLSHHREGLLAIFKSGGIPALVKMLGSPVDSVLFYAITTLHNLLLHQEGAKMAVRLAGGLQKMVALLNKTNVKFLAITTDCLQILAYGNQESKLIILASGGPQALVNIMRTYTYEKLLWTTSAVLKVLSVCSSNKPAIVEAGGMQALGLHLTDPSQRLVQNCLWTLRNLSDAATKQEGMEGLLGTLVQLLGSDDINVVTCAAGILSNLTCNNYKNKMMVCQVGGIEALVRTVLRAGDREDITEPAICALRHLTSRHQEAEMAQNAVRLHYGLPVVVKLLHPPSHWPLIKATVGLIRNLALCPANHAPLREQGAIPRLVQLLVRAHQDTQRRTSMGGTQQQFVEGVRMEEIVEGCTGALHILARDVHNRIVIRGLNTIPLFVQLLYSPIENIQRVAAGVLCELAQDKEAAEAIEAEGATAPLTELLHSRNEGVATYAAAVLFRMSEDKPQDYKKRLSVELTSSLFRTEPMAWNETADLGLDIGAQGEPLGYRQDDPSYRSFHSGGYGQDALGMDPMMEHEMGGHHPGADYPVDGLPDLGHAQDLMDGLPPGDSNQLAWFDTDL
Description: as §1

- binding result [1]: binds
- binding result [2]: binds
- binding result [3]: binds
B1: LEF-1 amino acids 1-99 fused to Lex-A (vector BTM 116) (other, UniProt P0A7C2 1-202, looked up)
chain: MKALTARQQEVFDLIRDHISQTGMPPTRAEIAQRLGFRSPNAAEEHLKALARKGVIEIVSGASRGIRLLQEEEEGLPLVGRVAAGEPLLAQQHIEGHYQVDPSLFKPNADFLLRVSGMSMKDIGIMDGDLLAVHKTQDVRNGQVVVARIDDEVTVKRLKKQGNKVELLPENSEFKPIVVDLRQQSFTIEGLAVGVIRNGDWLMPQLSGGGGGGDPELCATDEMIPFKDEGDPQKEKIFAEISHPEEEGDLADIKSSLVNESEIIPASNGHEVVRQAPSSQEPYHDKAREHPDEGKHPDGGL
notes: Order of the fusion follows the vector; also called LEF-1/TCF-4
